This is an account of results in patent publication US20040014636A1, “Pharmaceutical compositions comprising a modulator of adamts-1” (priority 2000, published 2004).

Data set [1] concerns ADAMTS-1 message in THP-1 cells. Nature of the data set: Real time PCR of ADAMTS-1 message in THP-1 cells. Type of data set: cell-based, human. The conditions noted are these: PMA 160 nM, 0 to 8+1 days. The procedure:
THP-1 cells were cultured in RPMI 1640 media supplemented with 10% FBS, penicillin-Streptomycin, sodium pyruvate, and nonessential amino acids (Sigma). PMA (Sigma) was dissolved in ethanol and diluted in the medium at a final concentration of 160 nM. LDL was equilibrated in PBS and diluted to 400 μg/mL and oxidized with 10 μM CuSO4 for 2.5 hours at 37 degrees C. The mildly oxidized LDL was equilibrated in RPMI 1640 and filter sterilized.
THP-1 cells were cultured in media containing PMA for 0, 2, 4, 8, and 8+1 days. Another set of plates were incubated with PMA for 8+1 days, with the mildly oxidized LDL also present in the last day. RNA was extracted and ADAMTS-1 message was analyzed by real time PCR.
On the technique in general: In qPCR the cycle at which signal appears reflects the starting amount.

Data set [2] has as its system 38 amino acid peptide derived from the published cleavage site on the proteoglycan aggrecan.
Data set [3] addresses versican (large proteoglycan population secreted by primary human aortic smooth muscle cells) (UniProt P13611).
Sequence of UniProt P13611 (P13611 21-3396): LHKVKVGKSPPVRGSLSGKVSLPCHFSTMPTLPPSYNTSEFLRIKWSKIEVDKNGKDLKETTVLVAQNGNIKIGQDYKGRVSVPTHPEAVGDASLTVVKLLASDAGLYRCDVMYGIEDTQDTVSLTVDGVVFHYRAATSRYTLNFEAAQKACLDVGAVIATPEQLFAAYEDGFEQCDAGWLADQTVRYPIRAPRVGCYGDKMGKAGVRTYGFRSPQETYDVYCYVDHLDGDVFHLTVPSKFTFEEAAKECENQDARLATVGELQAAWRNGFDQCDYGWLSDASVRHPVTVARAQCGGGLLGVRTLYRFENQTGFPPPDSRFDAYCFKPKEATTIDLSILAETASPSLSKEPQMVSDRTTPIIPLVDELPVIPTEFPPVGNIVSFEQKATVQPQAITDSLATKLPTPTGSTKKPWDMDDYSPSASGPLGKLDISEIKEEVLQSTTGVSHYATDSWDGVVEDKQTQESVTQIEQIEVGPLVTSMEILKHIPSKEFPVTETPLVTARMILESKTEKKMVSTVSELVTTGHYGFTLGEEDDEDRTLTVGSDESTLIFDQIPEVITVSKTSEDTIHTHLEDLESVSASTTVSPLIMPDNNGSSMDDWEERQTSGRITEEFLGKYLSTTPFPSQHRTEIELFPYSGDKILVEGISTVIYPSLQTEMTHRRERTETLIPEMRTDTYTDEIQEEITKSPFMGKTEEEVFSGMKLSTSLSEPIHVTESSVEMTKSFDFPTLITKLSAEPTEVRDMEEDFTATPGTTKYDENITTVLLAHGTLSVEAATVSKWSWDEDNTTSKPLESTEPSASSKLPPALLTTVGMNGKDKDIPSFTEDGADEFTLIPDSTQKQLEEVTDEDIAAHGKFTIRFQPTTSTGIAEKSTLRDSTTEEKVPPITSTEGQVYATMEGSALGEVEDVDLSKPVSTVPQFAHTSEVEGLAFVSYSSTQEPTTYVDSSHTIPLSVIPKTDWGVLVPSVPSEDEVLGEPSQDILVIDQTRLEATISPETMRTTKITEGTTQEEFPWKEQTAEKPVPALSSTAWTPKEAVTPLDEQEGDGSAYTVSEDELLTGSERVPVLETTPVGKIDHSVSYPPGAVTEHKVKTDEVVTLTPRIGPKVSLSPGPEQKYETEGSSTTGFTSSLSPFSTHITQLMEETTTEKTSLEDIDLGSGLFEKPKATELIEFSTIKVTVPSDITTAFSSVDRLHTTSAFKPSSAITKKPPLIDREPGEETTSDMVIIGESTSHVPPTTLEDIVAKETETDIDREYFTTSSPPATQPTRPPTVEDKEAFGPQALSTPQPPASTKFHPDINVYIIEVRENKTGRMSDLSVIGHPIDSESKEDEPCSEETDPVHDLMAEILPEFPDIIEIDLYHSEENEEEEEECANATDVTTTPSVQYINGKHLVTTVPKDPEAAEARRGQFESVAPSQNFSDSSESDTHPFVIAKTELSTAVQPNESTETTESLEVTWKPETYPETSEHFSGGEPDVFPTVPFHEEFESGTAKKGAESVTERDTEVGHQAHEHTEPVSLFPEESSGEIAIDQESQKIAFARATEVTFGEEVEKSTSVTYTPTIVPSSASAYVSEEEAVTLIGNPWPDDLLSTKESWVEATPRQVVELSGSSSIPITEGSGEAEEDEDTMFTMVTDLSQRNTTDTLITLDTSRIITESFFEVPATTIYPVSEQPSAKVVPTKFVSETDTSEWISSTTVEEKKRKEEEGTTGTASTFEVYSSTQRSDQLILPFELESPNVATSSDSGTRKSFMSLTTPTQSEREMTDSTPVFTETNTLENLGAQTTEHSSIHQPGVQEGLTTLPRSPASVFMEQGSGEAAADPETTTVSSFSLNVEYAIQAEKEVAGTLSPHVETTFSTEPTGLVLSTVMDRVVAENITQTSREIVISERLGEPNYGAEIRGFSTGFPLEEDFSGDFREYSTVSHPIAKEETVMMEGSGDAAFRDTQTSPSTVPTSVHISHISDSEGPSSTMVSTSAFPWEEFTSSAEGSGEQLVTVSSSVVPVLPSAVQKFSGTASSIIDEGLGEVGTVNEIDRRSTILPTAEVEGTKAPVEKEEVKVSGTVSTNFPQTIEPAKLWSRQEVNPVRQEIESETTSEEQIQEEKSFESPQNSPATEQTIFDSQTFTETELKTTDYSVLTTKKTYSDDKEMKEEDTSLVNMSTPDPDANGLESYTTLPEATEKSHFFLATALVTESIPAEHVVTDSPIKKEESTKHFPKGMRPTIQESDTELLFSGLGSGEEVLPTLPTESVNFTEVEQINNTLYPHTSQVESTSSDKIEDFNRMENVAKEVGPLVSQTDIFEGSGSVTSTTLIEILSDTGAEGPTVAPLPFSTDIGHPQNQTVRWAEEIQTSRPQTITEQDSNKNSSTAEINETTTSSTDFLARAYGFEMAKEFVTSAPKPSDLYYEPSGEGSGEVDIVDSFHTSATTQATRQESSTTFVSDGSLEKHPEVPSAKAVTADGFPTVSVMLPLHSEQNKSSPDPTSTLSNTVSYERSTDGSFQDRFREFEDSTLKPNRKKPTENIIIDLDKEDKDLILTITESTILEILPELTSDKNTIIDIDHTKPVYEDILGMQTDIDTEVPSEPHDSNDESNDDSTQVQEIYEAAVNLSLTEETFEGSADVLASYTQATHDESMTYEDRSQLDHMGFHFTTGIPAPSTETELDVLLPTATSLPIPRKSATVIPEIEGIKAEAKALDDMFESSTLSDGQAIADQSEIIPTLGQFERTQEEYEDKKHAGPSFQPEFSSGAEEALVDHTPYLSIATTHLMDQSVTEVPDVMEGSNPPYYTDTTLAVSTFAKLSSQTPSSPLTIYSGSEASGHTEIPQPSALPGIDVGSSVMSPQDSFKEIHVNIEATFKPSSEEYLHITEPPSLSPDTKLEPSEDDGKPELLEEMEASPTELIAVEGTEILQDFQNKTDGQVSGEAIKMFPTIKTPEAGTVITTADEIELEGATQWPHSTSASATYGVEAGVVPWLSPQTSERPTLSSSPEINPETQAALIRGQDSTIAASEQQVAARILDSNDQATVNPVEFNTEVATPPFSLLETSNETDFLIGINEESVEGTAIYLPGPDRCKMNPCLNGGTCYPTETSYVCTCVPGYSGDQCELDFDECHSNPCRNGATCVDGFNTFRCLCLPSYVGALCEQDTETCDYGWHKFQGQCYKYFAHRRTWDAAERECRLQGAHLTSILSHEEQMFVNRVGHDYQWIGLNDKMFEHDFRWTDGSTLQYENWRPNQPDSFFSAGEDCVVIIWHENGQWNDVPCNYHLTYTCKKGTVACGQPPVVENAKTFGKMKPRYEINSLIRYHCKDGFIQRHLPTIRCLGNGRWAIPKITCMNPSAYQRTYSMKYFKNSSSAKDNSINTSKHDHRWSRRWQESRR
In the next data set the test system is versican. As to the kind of experiment: Digestion of proteoglycans from aortic smooth muscle cells, size exclusion chromatography. As to conditions: total proteoglycan from primary aortic smooth muscle cells incubated with ADAMTS-1 before size exclusion chromatography. In kind it is biochemical, human. The method, then: Human aortic smooth muscle cells were purchased from Clonetics (BioWhittaker) and cultured according to supplier. For preparation of total proteoglycan population (total PG), AoSMCs were seeded at 3000 cells/cm2 in SmBM2 media (4×80 cm2 flasks). 5 days later, the cells were washed with Dulbecco's PBS and BME-Diploid medium with FBS was added to the cells. 1 day later, fresh DME-Diploid medium without FBS, containing 35S-Sulfate 33 μCi/mL and 3H-Leucine 17 μCi/mL, 15 mL/bottle and incubated for 3 days. The medium was transferred and dialyzed against binding buffer containing 8M urea, 2 mM EDTA, 0.5% Triton X-100, and 20 mM Tris-HCl, pH 7.5, for 48 hours and applied to a pre-equilibrated Hi-Trap Q column. After washing with 25 mL of Elution buffer A (binding buffer+0.25 M NaCl, proteoglycan population is eluted with a linear salt gradient: 0.25-3 M NaCl in binding buffer. Total counts in each fraction were counted by liquid scintillation counting. The fractions containing PGs were pooled, dialyzed against water, lyophilized and stored at −20 degrees C. until use (‘total PG’).
Separation by size exclusion chromatography was performed using a Superdex 200 HR 10/30 from Amersham Pharmacia biotech. […] 1 mL fractions were collected and 35S measured for each fraction.
(In gel filtration, larger molecules generally elute earlier.)

With `CCCCCCCCCCCCCC(=O)O[C@@H]1[C@@H](C)[C@@]2(O)[C@@H](C=C(CO)C[C@]3(O)C(=O)C(C)=C[C@@H]23)[C@@H]2C(C)(C)[C@]12OC(C)=O` [PMA], the ADAMTS-1 message level entry in data set [1] is “induced”.
recombinant ADAMTS-1: the “cleavage of peptide substrate, HPLC analysis” value in data set [2] is on record as “Cleavage of the peptide by recombinant ADAMTS-1 has been confirmed by HPLC analysis”. In data set [3], the “size exclusion chromatography of total proteoglycan incubated with or without ADAMTS-1” value was “In the presence of ADAMTS-1, the size of the large proteoglycan population made up primarily of versican is reduced and the size of the peak corresponding to smaller sized proteoglycan population is increased”.

B1: ADAMTS-1: metalloproteinase (A Disintegrin-like And Metalloprotease with Thrombospondin type 1 motif), incubated with total proteoglycan (protein)
chain: FVSSHRYVETMLVADQSMAEFHGSGLKHYLLTLFSVAARLYKHPSIRNSVSLVVVKILVIHDEQKGPEVTSNAALTLRNFCNWQKQHNPPSDRDAEHYDTAILFTRQDLCGSQTCDTLGMADVGTVCDPSRSCSVIEDDGLQAAFTTAHELGHVFNMPHDDAKQCASLNGVNQDSHMMASMLSNLDHSQPWSPCSAYMITSFLDNGHGECLMDKPQNPIQLPGDLPGTSYDANRQCQFTFGEDSKHCPDAASTCSTLWCTGTSGGVLVCQTKHFPWADGTSCGEGKWCINGKCVNKTDRKHFDTPFHGSWGMWGPWGDCSRTCGGGVQYTMRECDNPVPKNGGKYCEGKRVRYRSCNLEDCPDNNGKTFREEQCEAHNEFSKASFGSGPAVEWIPKYAGVSPKDRCKLICQAKGIGYFFVLQPKVVDGTPCSPDSTSVCVQGQCVKAGCDRIIDSKKKFDKCGVCGGNGSTCKKISGSVTSAKPGYHDIITIPTGATNIEVKQRNQRGSRNNGSFLAIKAADGTYILNGDYTLSTLEQDIMYKGVVLRYSGSSAALERIRSFSPLKEPLTIQVLTVGNALRPKIKYTYFVKKKKESFNAIPTFSAWVIEEWGECSKSCELGWQRRLVECRDINGQPASECAKEVKPASTRPCADHPCPQWQLGEWSSCSKTCGKGYKKRSLKCLSHDGGVLSHESCDPLKKPKHFIDFCTMAECS
For the molecule B1, the “cleavage of large proteoglycan population (versican)” value in the data set on versican is “the size of the large proteoglycan peak is diminished”.
